Measured values from patent publication US20070298412A1 (ZAKRYTOE AKTSIONERNOE OBSCHESTVO EVROGEN, published 2007).

B1: phiYFP, yellow fluorescent protein from Phialidium sp. (wild type) (other)
chain: MSSGALLFHGKIPYVVEMEGNVDGHTFSIRGKGYGDASVGKVDAQFICTTGDVPVPWSTLVTTLTYGAQCFAKYGPELKDFYKSCMPEGYVQERTITFEGDGVFKTRAEVTFENGSVYNRVKLNGQGFKKDGHVLGKNLEFNFTPHCLYIWGDQANHGLKSAFKIMHEITGSKEDFIVADHTQMNTPIGGGPVHVPEYHHITYHVTLSKDVTDHRDNMSLVETVRAVDCRKTYL
notes: Recombinant protein from the whole coding region, expressed in E. coli and purified on TALON; Found to be a homodimer by gel electrophoresis of non-heated samples and by gel filtration; not shown: N-terminal six-histidine tag from the pQE30 vector
B2: phiYFP-M1 (phiYFP mutant with E88D, V103N, M166C, E174G, I201M, T202S, T206K, V221K) (other)
chain: MSSGALLFHGKIPYVVEMEGNVDGHTFSIRGKGYGDASVGKVDAQFICTTGDVPVPWSTLVTTLTYGAQCFAKYGPELKDFYKSCMPDGYVQERTITFEGDGNFKTRAEVTFENGSVYNRVKLNGQGFKKDGHVLGKNLEFNFTPHCLYIWGDQANHGLKSAFKICHEITGSKGDFIVADHTQMNTPIGGGPVHVPEYHHMSYHVKLSKDVTDHRDNMSLKETVRAVDCRKTYL
notes: No tag is stated for the gel-filtration sample
B3: phiYFP-Y1 (phiYFP mutant with S2P, E174G, I201M) (other)
chain: MPSGALLFHGKIPYVVEMEGNVDGHTFSIRGKGYGDASVGKVDAQFICTTGDVPVPWSTLVTTLTYGAQCFAKYGPELKDFYKSCMPEGYVQERTITFEGDGVFKTRAEVTFENGSVYNRVKLNGQGFKKDGHVLGKNLEFNFTPHCLYIWGDQANHGLKSAFKIMHEITGSKGDFIVADHTQMNTPIGGGPVHVPEYHHMTYHVTLSKDVTDHRDNMSLVETVRAVDCRKTYL
notes: Found to be a homodimer
B4: phiYFP-M0 (phiYFP mutant with S2P, V103N, M166R, E174G, Y198N, I201M, T202S, T206K, V221K) (other)
chain: MPSGALLFHGKIPYVVEMEGNVDGHTFSIRGKGYGDASVGKVDAQFICTTGDVPVPWSTLVTTLTYGAQCFAKYGPELKDFYKSCMPEGYVQERTITFEGDGNFKTRAEVTFENGSVYNRVKLNGQGFKKDGHVLGKNLEFNFTPHCLYIWGDQANHGLKSAFKIRHEITGSKGDFIVADHTQMNTPIGGGPVHVPENHHMSYHVKLSKDVTDHRDNMSLKETVRAVDCRKTYL
notes: No tag is stated for the tested sample
B5: S3-2 red fluorescent mutant of hm2CP (other)
chain: MEGGPALFQSDMTFKIFIDGVVNGQKFTIVADGSSKFPHGDFNVHAVCETGKLPMSWKPICHLIQYGEPFFARYPNGISHFAQECFPEGLSIDRTVRFENDGTMTSHHTYELDGTCVVSRITVNCDGFQPDGPIMRDQLVDILPNETHMFPHGPNAVRQLAFIGFTTADGGLMMSHFDSKMTFNGSRAIKIPGPHFVTTITKQMKDTSDKRDHVCQREVTYAHSVPRITSAI
notes: No tag is stated for the gel-filtration sample; also called S3-2 red fluorescent protein

Key:
[1] = target: the molecule itself; assay: gel electrophoresis of non-heated samples and gel filtration on Sephadex-100 (homodimer)
Procedure: Under these conditions these FPs migrated as yellow fluorescent band at about 50 kDa. […] Purified protein samples (˜1 mg/ml) were loaded onto a Sephadex-100 column (0.7×60 cm) and eluted with a solution of 50 mM phosphate buffer (pH 7.0) and 100 mM NaCl. EGFP, HcRed1 and DsRed2 (Clontech) were used as monomer, dimer and tetramer standards, respectively.

[2] = target: the molecule itself; assay: gel filtration (self-association)

Protein | binding result [1] | binding result [2]
B1 | binds | 
B2 |  | no binding
B3 | binds | 
B4 |  | no binding
B5 |  | no binding
